# Experimental data taken from paper PMC6400076 (Frontiers in Microbiology, 2019).
# Legend:
# [1] = system: NC(=O)c1ccc[n+]([C@@H]2O[C@H](COP(=O)(O)OP(=O)(O)OC[C@H]3O[C@@H](n4cnc5c(N)ncnc54)[C@H](O)[C@@H]3O)[C@@H](O)[C@H]2O)c1; assay: purified protein; conditions: 5 mM G3P, 50 mM Pi, pH 8.5, 25°C
# O=C[C@H](O)COP(=O)(O)O = assay: purified protein; conditions: 2 mM NAD+, 50 mM Pi, pH 8.5, 25°C
# SpGAPDH = biological target: T1, SpGAPDH (Streptococcus pyogenes, UniProt P68777)
# T1 construct: gene gap
# AvGAPDH = biological target: T2, AvGAPDH (Fannyhessea vaginae, UniProt F1T6A5); type: biochemical
# T2 construct: gene gap; recombinant, expressed and purified by similar protocols as previously described, homotetramer
# T2 sequence (F1T6A5 entry or part of it): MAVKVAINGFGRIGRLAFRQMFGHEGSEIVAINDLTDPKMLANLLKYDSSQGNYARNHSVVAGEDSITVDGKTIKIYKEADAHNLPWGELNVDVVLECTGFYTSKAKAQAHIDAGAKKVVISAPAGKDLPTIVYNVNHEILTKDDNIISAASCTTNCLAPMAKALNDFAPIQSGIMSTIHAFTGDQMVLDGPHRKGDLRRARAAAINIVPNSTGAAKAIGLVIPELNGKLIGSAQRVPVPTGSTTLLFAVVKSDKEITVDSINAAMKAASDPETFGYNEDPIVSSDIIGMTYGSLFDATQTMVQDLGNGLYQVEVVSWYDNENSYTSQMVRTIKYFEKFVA
# T1 sequence (P68777 whole entry): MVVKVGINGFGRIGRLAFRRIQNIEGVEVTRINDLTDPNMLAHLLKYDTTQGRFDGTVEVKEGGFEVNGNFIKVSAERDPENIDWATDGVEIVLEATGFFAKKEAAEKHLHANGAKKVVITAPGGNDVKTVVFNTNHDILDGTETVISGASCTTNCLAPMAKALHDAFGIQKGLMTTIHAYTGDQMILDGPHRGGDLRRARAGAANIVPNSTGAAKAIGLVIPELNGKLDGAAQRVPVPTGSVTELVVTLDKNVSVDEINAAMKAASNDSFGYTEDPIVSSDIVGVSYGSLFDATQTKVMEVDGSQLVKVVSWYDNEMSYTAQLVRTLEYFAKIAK
Compound,Km [1] [µM],Vmax [1] [µM/min/mg],kcat [1] [s⁻¹],Km (O=C[C@H](O)COP(=O)(O)O) [µM],Vmax (O=C[C@H](O)COP(=O)(O)O) [µM/min/mg],kcat (O=C[C@H](O)COP(=O)(O)O) [s⁻¹],kcat/Km (O=C[C@H](O)COP(=O)(O)O) [M⁻¹ s⁻¹],Ki (SpGAPDH) [µM],Ki (AvGAPDH) [µM]
SpGAPDH (Streptococcus pyogenes MGAS8232),280 ± 30,2.24e+06,3730 ± 100,2800 ± 300,3.67e+06,6110 ± 260,2.18e+06 ± 320000,,
"CCCCCCCCCCCCCCCc1cccc(O)c1C(=O)O [anacardic acid, 6-pentadecylsalicylic acid]",,,,,,,,3.3 ± 0.3,1.25 ± 0.08
COc1cc(/C=C/C(=O)CC(=O)/C=C/c2ccc(O)c(OC)c2)ccc1O [curcumin],,,,,,,,38 ± 4,39 ± 3
